For 1 substance, stoichiometry N results are on record in PMC8000399.

The assay deals with adzuki bean (Vigna angularis) β-vignin protein (Vigna angularis (adzuki bean)). Nature of the assay: SEC; gel molecular sieving on a Sephadex G-200 column (50 cm x 2.5 cm) under native condition, 0.58 mL/min, room temperature; calibrated with standard proteins; apparent molecular size compared with the subunits' Mr from SDS-PAGE. (In gel filtration, larger molecules generally elute earlier.)

Take “adzuki bean (Vigna angularis) β-vignin protein (natural protein)”: the stoichiometry N was found to be 3.

Usually stoichiometry N stands for a count of units in the complex or per binding partner.
